Assay results taken from PMC8776730 (Nature Communications, 2022).
One block for each substance: values may come before it.

Columns and labels:
[1] = Critical assembly concentration (CAC) by pyrene fluorescence probe; assay type: physicochemical
From the text: In order to study the molecular design and their assembly behavior, we modular designed and synthesized seven molecules (Table 1), which respectively were BIVA probe: M1 (mPEG-GPAKLVFFGC(IR783)GRGD); the non- FAP-α tailoring molecule: M2 (mPEG-AGGKLVFFGC(IR783)GRGD) scrambled response tailoring motif of Gly-Pro-Ala with Ala-Gly-Gly; the non-labeling molecule of M1: M3 (mPEG-GPAKLVFFGCGRGD) removed IR783 labeling; FAP-α tailoring residue of M1: R-M1 (AKLVFFGC(IR783)GRGD); the non-targeting molecule: M4 (mPEG-GPAKLVFFGC(IR783)GDTG) scrambled targeting tailoring motif of Arg-Gly-Asp with Asp-Thr-Gly; the non-labeling molecule of M2: M5 (mPEG-AGGKLVFFGCGRGD) removed IR783 labeling; FAP-α tailoring residue of M3: R-M3 (AKLVFFGCGRGD). All the synthesized procedure (Supplementary Fig. 1) and characterizations of these seven molecules can be found in SI (Supplementary Figs. 2–8). […] Without IR783 labeling, molecules of M3 and M5 decreased the CAC value in solution relative to M1 and M2, which could be attributed to the proximity of the steric hindrance of hydrophilic IR783 to the self-assembly motif (Supplementary Fig. 9). […] The CAC was quantitatively calculated by fluorescence probe of pyrene.

FAP-α = target: T1, FAP-α (Homo sapiens, UniProt Q12884); experiment: FAP-α tailoring (cleavage) followed by HPLC and MALDI-TOF; assay type: biochemical; conditions: 100 μM molecule, FAP-α 50 μM, 12 h; buffer 50 mM Tris, 1 M NaCl, 1 mg/mL BSA, pH 7.5; HPLC (M3, M5), MALDI-TOF (M1)
T1 construct: purchased R&D SYSTEM
T1 sequence (Q12884 1-760): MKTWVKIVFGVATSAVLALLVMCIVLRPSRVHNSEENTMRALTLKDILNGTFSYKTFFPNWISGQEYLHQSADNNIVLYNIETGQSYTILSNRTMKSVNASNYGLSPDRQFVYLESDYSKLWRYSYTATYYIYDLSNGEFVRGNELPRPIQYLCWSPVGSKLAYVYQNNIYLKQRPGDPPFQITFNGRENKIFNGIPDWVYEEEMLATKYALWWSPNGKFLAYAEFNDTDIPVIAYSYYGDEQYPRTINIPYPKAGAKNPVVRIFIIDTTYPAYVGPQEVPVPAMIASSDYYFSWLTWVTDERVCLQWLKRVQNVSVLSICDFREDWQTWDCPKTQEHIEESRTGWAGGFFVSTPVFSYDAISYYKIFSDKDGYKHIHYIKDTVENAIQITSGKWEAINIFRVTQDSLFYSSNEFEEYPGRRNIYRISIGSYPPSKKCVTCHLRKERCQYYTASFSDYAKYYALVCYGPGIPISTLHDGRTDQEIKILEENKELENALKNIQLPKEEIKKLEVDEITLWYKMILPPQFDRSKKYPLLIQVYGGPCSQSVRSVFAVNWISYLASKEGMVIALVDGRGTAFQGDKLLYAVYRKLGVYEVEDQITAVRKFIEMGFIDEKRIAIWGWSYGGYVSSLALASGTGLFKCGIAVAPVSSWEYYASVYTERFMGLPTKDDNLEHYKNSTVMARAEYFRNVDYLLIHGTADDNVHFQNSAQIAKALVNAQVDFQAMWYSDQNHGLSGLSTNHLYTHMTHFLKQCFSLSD
From the text: To further investigate the FAP-α specific tailoring and BIVA probe assembly in situ simultaneously (Fig. 4a), the high-performance liquid chromatography (HPLC), TEM, and matrix-assisted laser desorption/ionization time-of-flight (MALDI-TOF) mass spectrometry were applied for the characterizations purpose. To specify the cutting of the response tailoring motif (Gly-Pro-Ala), pre-synthesized molecules of R-M3, M3 and M5 were set as controls. […] Comparing the residues peaks with R-M3, the primary sharp peak at 27.4 min can be identified by the R-M3 control (27.6 min). […] The retention time of M1 after co-incubation with inactivated FAP-α was similar to that of M3 (Supplementary Fig. 14). After hydrolyzed by FAP-α, the residues of M1 in situ assembled into nanofibers structures under the complex buffer (Fig. 4c and Supplementary Fig. 15). […] In order to further evaluate the specificity of M1 for different enzymes, including FAP-α, pepsin, pancreatin, lipase, and BSA, we used ThT (Thioflavin T) as a detection probe (Fig. 4e).
Fig. 4 The FAP-α specific molecule tailoring and inducing in situ assembly. a The illustration the working mechanism of BIVA probe based on FAP-α catalytic hydrolysis. b HPLC curves of M3 and M5 after incubation with FAP-α in buffer. R-M3, M3 and M5 were synthesized controls. The TEM image (c), and the MALDI-TOF (d), results of M1 after tailoring by FAP-α in buffer, the red arrows represent the assembled fibrils of M1 after incubation with FAP-α. e The enzyme specificity of M1 in buffer. Buffer: 50 mM Tris, 1 M NaCl, 1 mg/mL, BSA, pH 7.5; Concentration of M1 and M3: 100 μM; Concentration of FAP-α: 50 μM; incubation time: 12 h. […]

Substance: mPEG-GPAKLVFFGC(IR783)GRGD [M1]
Critical assembly concentration (CAC) ([1]; aqueous solution, analyzed based on pyrene fluorescence): >500 µM
tailoring (cleavage) by FAP-α (FAP-α): cut into two parts of R-M1 and PEG residue

tailoring (cleavage) by FAP-α (FAP-α): totally cleaved
Substance: mPEG-GPAKLVFFGCGRGD [M3, the non-labeling molecule of M1 (no IR783)]
pyrene I1/I3 ([1]; conc 100 μM): 1.163
pyrene I1/I3 ([1]; conc 200 μM): 1.158
pyrene I1/I3 ([1]; conc 300 μM): 1.141
pyrene I1/I3 ([1]; conc 400 μM): 1.131
pyrene I1/I3 ([1]; conc 500 μM): 1.152
pyrene I1/I3 ([1]; conc 600 μM): 1.067
pyrene I1/I3 ([1]; conc 700 μM): 1.052
pyrene I1/I3 ([1]; conc 800 μM): 1.029
pyrene I1/I3 ([1]; conc 900 μM): 0.978
